Variants at the floor of the assay were thinned out.
Columns and labels:
biotinyl-Phe-oxazolone = experiment: self-aminoacylation, catalytic enhancement (BFO) (fold over background); higher = more active; k-Seq, kA / k0A0; sequences stand for … in GGGAAUGGAUCCACAUCUACGAAUUC…UUCACUGCAGACUUGACGAAGCUG
In short: (§1)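 Each biotinyl-aminoacyl-oxazolone, at 2–1250 μM, was incubated with mutagenized RNA pools (0.43 μM) carrying a 21-nt variable region. The 50 μL reactions contained HEPES/NaCl/KCl/MgCl2/CaCl2 buffer with 5% acetonitrile at pH 6.9–7.0 and ran for 90 minutes at room temperature. After streptavidin capture, RNA was measured by qPCR in triplicate and by Illumina sequencing, and catalytic enhancement was calculated as median kA over the uncatalyzed rate from a pseudo-first-order fit of per-sequence fraction reacted.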

biotinyl-Ile-oxazolone = experiment: self-aminoacylation, catalytic enhancement (BIO) (fold over background); higher = more active; k-Seq, kA / k0A0; sequences stand for … in GGGAAUGGAUCCACAUCUACGAAUUC…UUCACUGCAGACUUGACGAAGCUG
In short: as §1

biotinyl-Met-oxazolone = experiment: self-aminoacylation, catalytic enhancement (BMO) (fold over background); higher = more active; k-Seq, kA / k0A0; sequences stand for … in GGGAAUGGAUCCACAUCUACGAAUUC…UUCACUGCAGACUUGACGAAGCUG
In short: as §1

biotinyl-Val-oxazolone = experiment: self-aminoacylation, catalytic enhancement (BVO) (fold over background); higher = more active; k-Seq, kA / k0A0; sequences stand for … in GGGAAUGGAUCCACAUCUACGAAUUC…UUCACUGCAGACUUGACGAAGCUG
In short: as §1

biotinyl-Leu-oxazolone = experiment: self-aminoacylation, catalytic enhancement (BLO) (fold over background); higher = more active; k-Seq, kA / k0A0; sequences stand for … in GGGAAUGGAUCCACAUCUACGAAUUC…UUCACUGCAGACUUGACGAAGCUG
In short: as §1

biotinyl-Trp-oxazolone = experiment: self-aminoacylation, catalytic enhancement (BWO) (fold over background); higher = more active; k-Seq, kA / k0A0; sequences stand for … in GGGAAUGGAUCCACAUCUACGAAUUC…UUCACUGCAGACUUGACGAAGCUG
In short: as §1

| Sequence | self-aminoacylation (biotinyl-Phe-oxazolone) | self-aminoacylation (biotinyl-Ile-oxazolone) | self-aminoacylation (biotinyl-Met-oxazolone) | self-aminoacylation (biotinyl-Val-oxazolone) | self-aminoacylation (biotinyl-Leu-oxazolone) | self-aminoacylation (biotinyl-Trp-oxazolone) |
| --- | --- | --- | --- | --- | --- | --- |
| AUUACCCAGGUCAUCGAGUGG [Fam2.1 aminoacylation ribozyme variant] | 0.937 | 1.14 | 1.07 | 1.22 | 1.3 | 0.735 |
| AUUACCCAGGUCAUCGCGUGA [Fam2.1 aminoacylation ribozyme variant] | 156 | 8.22 | 20.3 | 10.3 | 22.9 | 19.3 |
| AUUACCCAGGUCAUCGGGUGA [Fam2.1 aminoacylation ribozyme variant] | 75.2 | 5.86 | 11.5 | 7.25 | 12.6 | 11 |
| AUUACCCAGUUCAUCGAGUGA [Fam2.1 aminoacylation ribozyme variant] | 16.8 | 2.14 | 3.69 | 2.62 | 3.09 | 4.78 |
| AUUACCCAUGUCAUCGAGUGA [Fam2.1 aminoacylation ribozyme variant] | 34.3 | 4.15 | 7.7 | 4.43 | 8.07 | 9.9 |
| AUUACCCCCGUCAUCGAGUGA [Fam2.1 aminoacylation ribozyme variant] | 18.4 | 2.84 | 4.43 | 3.12 | 4.7 | 4.67 |
| AUUACCCCGGUCAUAGAGUGA [Fam2.1 aminoacylation ribozyme variant] | 43.1 | 4.47 | 7.91 | 3.96 | 8.34 | 8.65 |
| AUUACCCCGGUCAUCCAGUGA [Fam2.1 aminoacylation ribozyme variant] | 31.4 | 3.52 | 4.93 | 3.06 | 5.88 | 5.63 |
| AUUACCCCGGUCAUCGAGUGG [Fam2.1 aminoacylation ribozyme variant] | 4.86 | 0.919 | 1.25 | 1.13 | 2.42 | 0.999 |
| AUUACCCCGGUCAUCGUGUGA [Fam2.1 aminoacylation ribozyme variant] | 16.2 | 1.55 | 2.63 | 1.74 | 2.57 | 2.98 |
| AUUACCCCGUUCAUCGAGUGA [Fam2.1 aminoacylation ribozyme variant] | 7.48 | 2.28 | 4.47 | 2.77 | 3.55 | 5.03 |
| AUUACCCCUGUCAUCGAGUGA [Fam2.1 aminoacylation ribozyme variant] | 28.2 | 3.62 | 4.96 | 3.14 | 5.42 | 7.28 |
| AUUACCCGGGUAAUCGAGUGA [Fam2.1 aminoacylation ribozyme variant] | 81 | 5.16 | 12.1 | 5.84 | 13.9 | 13.2 |
| AUUACCCGGGUCAUCGAGAGA [Fam2.1 aminoacylation ribozyme variant] | 0.475 | 1.22 | 1.05 | 1.22 | 1.01 | 1.24 |
| AUUACCCGGGUCAUCGAGUAA [Fam2.1 aminoacylation ribozyme variant] | 8.59 | 2.05 | 1.91 | 1.58 | 1.54 | 3.56 |
| AUUACCCGGGUCAUUGAGUGA [Fam2.1 aminoacylation ribozyme variant] | 56.8 | 4.35 | 9.41 | 4.83 | 8.98 | 10.8 |
| AUUACCCGGGUCUUCGAGUGA [Fam2.1 aminoacylation ribozyme variant] | 44.4 | 4.5 | 7.15 | 4.57 | 8.21 | 8.46 |
| AUUACCCGGUUCAUCGAGUGA [Fam2.1 aminoacylation ribozyme variant] | 16.5 | 3.67 | 6.36 | 4.41 | 6.51 | 7.78 |
| AUUACCCUAGACAUCGAGUGA [Fam2.1 aminoacylation ribozyme variant] | 37 | 3.77 | 8.71 | 4.07 | 7.96 | 9.09 |
| AUUACCCUAGCCAUCGAGUGA [Fam2.1 aminoacylation ribozyme variant] | 9 | 2.02 | 3.86 | 2.13 | 3.46 | 4.91 |
| AUUACCCUAGUCACCGAGUGA [Fam2.1 aminoacylation ribozyme variant] | 23.1 | 2.89 | 6.48 | 3.27 | 6.48 | 7.33 |
| AUUACCCUAGUCAGCGAGUGA [Fam2.1 aminoacylation ribozyme variant] | 23.4 | 3.38 | 5.1 | 3.38 | 5.18 | 6.79 |
| AUUACCCUAGUCAUCAAGUGA [Fam2.1 aminoacylation ribozyme variant] | 11.2 | 2.05 | 3.73 | 2.58 | 3.66 | 4.95 |
| AUUACCCUAGUCAUCGAGCGA [Fam2.1 aminoacylation ribozyme variant] | 0.894 | 1.3 | 1.38 | 1.32 | 1.2 | 1.21 |
| AUUACCCUAGUCAUCGAGUCA [Fam2.1 aminoacylation ribozyme variant] | 0.47 | 0.724 | 0.631 | 0.893 | 0.674 | 0.546 |
| AUUACCCUAGUCAUCGAGUGA [Fam2.1 aminoacylation ribozyme variant] | 18 | 2.89 | 4.92 | 3.05 | 5.12 | 6.3 |

| Sequence | self-aminoacylation (biotinyl-Phe-oxazolone) | self-aminoacylation (biotinyl-Ile-oxazolone) | self-aminoacylation (biotinyl-Met-oxazolone) | self-aminoacylation (biotinyl-Val-oxazolone) | self-aminoacylation (biotinyl-Leu-oxazolone) | self-aminoacylation (biotinyl-Trp-oxazolone) |
| --- | --- | --- | --- | --- | --- | --- |
| AUUACCCUAGUCAUCGCGUGA [Fam2.1 aminoacylation ribozyme variant] | 54.5 | 4.26 | 8.29 | 5.09 | 9.91 | 10.1 |
| AUUACCCUAGUCAUUGAGUGA [Fam2.1 aminoacylation ribozyme variant] | 25.9 | 3.69 | 6.69 | 3.86 | 6.93 | 9.31 |
| AUUACCCUAGUUAUCGAGUGA [Fam2.1 aminoacylation ribozyme variant] | 50.7 | 3.77 | 8.68 | 3.83 | 8.3 | 11.1 |
| AUUACCCUCGUCAGCGAGUGA [Fam2.1 aminoacylation ribozyme variant] | 9.66 | 2.39 | 3.5 | 2.58 | 4.33 | 4.57 |
| AUUACCCUCGUCAUCGAGUGA [Fam2.1 aminoacylation ribozyme variant] | 8.82 | 2.08 | 2.98 | 2.07 | 3.09 | 3.22 |
| AUUACCCUCGUCAUCGAGUGG [Fam2.1 aminoacylation ribozyme variant] | 0.728 | 0.948 | 1.31 | 0.932 | 1.46 | 0.389 |
| AUUACCCUCGUCAUCGGGUGA [Fam2.1 aminoacylation ribozyme variant] | 24.1 | 2.39 | 3.84 | 2.77 | 4.5 | 3.81 |
| AUUACCCUCGUCAUCGUGUGA [Fam2.1 aminoacylation ribozyme variant] | 1.22 | 1.15 | 1.47 | 1.22 | 1.47 | 1.65 |
| AUUACCCUCGUCAUCUAGUGA [Fam2.1 aminoacylation ribozyme variant] | 9.86 | 2.3 | 3.26 | 2.7 | 3.57 | 4.43 |
| AUUACCCUCGUUAUCGAGUGA [Fam2.1 aminoacylation ribozyme variant] | 91.9 | 5.66 | 13.8 | 5.63 | 13.9 | 17 |
| AUUACCCUGAUCAACGAGUGA [Fam2.1 aminoacylation ribozyme variant] | 66.4 | 6.3 | 14.6 | 6.16 | 15 | 18.5 |
| AUUACCCUGAUCAUAGAGUGA [Fam2.1 aminoacylation ribozyme variant] | 70.5 | 6.32 | 15.8 | 6.89 | 15.1 | 17.7 |
| AUUACCCUGAUCAUCGAAUGA [Fam2.1 aminoacylation ribozyme variant] | 0.602 | 0.936 | 0.93 | 0.871 | 0.898 | 0.561 |
| AUUACCCUGAUCAUCGAGUGA [Fam2.1 aminoacylation ribozyme variant] | 21.8 | 3.8 | 7.96 | 4.15 | 7.82 | 9.57 |
| AUUACCCUGAUCAUCGAGUUA [Fam2.1 aminoacylation ribozyme variant] | 0.549 | 1.02 | 0.824 | 1.11 | 0.958 | 0.61 |
| AUUACCCUGAUCAUCGGGUGA [Fam2.1 aminoacylation ribozyme variant] | 67.3 | 5.24 | 9.51 | 5.38 | 9.62 | 10.7 |
| AUUACCCUGAUCCUCGAGUGA [Fam2.1 aminoacylation ribozyme variant] | 8.63 | 2.35 | 3.7 | 2.52 | 3.73 | 3.91 |
| AUUACCCUGAUCUUCGAGUGA [Fam2.1 aminoacylation ribozyme variant] | 15.7 | 2.56 | 4.57 | 2.74 | 5.04 | 6.11 |
| AUUACCCUGCACAUCGAGUGA [Fam2.1 aminoacylation ribozyme variant] | 29.8 | 3.01 | 6.87 | 3.65 | 7.49 | 8.38 |
| AUUACCCUGCUAAUCGAGUGA [Fam2.1 aminoacylation ribozyme variant] | 11.2 | 1.44 | 2.41 | 1.58 | 2.41 | 3.01 |
| AUUACCCUGCUCAUCGAGUGG [Fam2.1 aminoacylation ribozyme variant] | 0.52 | 0.831 | 1 | 0.81 | 1.09 | 0.578 |
| AUUACCCUGCUCAUUGAGUGA [Fam2.1 aminoacylation ribozyme variant] | 19.1 | 2.27 | 4.57 | 2.39 | 4.39 | 5.58 |
| AUUACCCUGGACAUCGAGUGC [Fam2.1 aminoacylation ribozyme variant] | 1.19 | 0.87 | 0.807 | 0.852 | 0.793 | 0.573 |
| AUUACCCUGGACAUCGAGUUA [Fam2.1 aminoacylation ribozyme variant] | 0.728 | 0.805 | 0.682 | 0.75 | 0.772 | 0.639 |
| AUUACCCUGGACAUCGUGUGA [Fam2.1 aminoacylation ribozyme variant] | 10.9 | 1.39 | 2.41 | 1.44 | 2.45 | 2.5 |
